Residue numbers refer to the chain shown, from its start.
B1: AC3377 (bispecific antibody, V domains shown)
VH: EVQLLESGGGIVQPGGSLKLSCAASGFTFNTYAMNWVRQAPGKGLEWVGRIRSKYNNYATYYADSVKDRFTISRDDSKNTVYLQMNNLKTEDTAVYYCVRHENFGNSYVSWFAHWGQGTLVTVSS
VL: ELVVTQEPSLTVSPGGTVTLTCRSSNGAVTSSNYANWVQQKPGQAPRGLIGGTNKRAPGTPARFSGSLLGGKAALTLSGVQPEDEAVYYCALWYPNLWVFGGGTKLTVL
B2: AC3399 (bispecific antibody, V domains shown)
VH: B1 VH with G49A, Y55R
VL: B1 VL
B3: AC3389 (bispecific antibody, V domains shown)
VH: B1 VH with G49A, R52Q
VL: B1 VL
B4: AC3385 (bispecific antibody, V domains shown)
VH: B1 VH with G49A, I51T
VL: B1 VL
B5: AC3398 (bispecific antibody, V domains shown)
VH: B1 VH with G49A, Y55A
VL: B1 VL
B6: AC3400 (bispecific antibody, V domains shown)
VH: B1 VH with G49A, Y55G
VL: B1 VL
B7: AC3401 (bispecific antibody, V domains shown)
VH: B1 VH with G49A, Y55K
VL: B1 VL
B8: AC3383 (bispecific antibody, V domains shown)
VH: B1 VH with G49A, I51A
VL: B1 VL
B9: AC3397 (bispecific antibody, V domains shown)
VH: B1 VH with G49A, K54P
VL: B1 VL
B10: AC3396 (bispecific antibody, V domains shown)
VH: B1 VH with G49A, S53T
VL: B1 VL

biological target: CD3; assay: Octet, crude lysate
Sequence (P07766 23-126): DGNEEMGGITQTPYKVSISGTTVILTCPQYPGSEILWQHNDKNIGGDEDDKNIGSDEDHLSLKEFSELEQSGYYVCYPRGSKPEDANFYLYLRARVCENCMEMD

Row | Binder | Kd
1 | B1 | 4.5 nM
2 | B2 | 3.8 nM
3 | B3 | 434 nM
4 | B4 | 425 nM
5 | B5 | 11.5 nM
6 | B6 | 20.1 nM
7 | B7 | 5.1 nM
8 | B8 | 1180 nM
9 | B9 | 51 nM
10 | B10 | 4.8 nM
